The values below come from article PMC10421740, “A universal deep-learning model for zinc finger design enables transcription factor reprogramming”.

The target of data set [1] is T1, KLF6 reprogrammed with array CDKN1C_200 8Q (synthetic construct, UniProt Q99612 1-199).
T1 chain: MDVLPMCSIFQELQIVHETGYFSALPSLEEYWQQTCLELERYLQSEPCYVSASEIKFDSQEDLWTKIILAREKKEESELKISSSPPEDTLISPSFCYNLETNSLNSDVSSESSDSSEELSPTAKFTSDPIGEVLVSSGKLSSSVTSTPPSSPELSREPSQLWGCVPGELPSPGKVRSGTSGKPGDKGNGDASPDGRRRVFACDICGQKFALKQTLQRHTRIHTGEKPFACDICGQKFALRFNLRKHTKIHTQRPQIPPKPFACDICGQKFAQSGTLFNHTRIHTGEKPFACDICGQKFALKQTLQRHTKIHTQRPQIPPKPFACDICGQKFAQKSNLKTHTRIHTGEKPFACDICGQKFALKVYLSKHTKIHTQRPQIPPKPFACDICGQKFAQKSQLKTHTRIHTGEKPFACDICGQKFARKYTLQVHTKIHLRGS
Nature of the data set: Zn; HEK293T, RT-qPCR 3 days after transfection. The following applies: tags: C-terminal linker + 3xFLAG (left out). On the technique in general: Quantitative PCR measures a nucleic acid by following its amplification.

Data set [2] has as its target T2, KLF6 reprogrammed with array CDKN1C_200 F3-8 (synthetic construct, UniProt Q99612 1-199).
T2 chain: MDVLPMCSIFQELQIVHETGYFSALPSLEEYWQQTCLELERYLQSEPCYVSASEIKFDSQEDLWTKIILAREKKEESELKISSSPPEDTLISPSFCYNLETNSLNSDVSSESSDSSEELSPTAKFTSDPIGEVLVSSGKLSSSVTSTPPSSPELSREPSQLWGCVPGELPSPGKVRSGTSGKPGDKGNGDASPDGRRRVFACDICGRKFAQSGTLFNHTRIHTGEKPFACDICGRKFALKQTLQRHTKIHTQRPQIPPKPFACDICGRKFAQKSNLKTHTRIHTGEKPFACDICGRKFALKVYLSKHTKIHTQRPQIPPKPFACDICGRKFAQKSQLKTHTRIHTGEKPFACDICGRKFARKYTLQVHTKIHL
Nature of the data set: Zn; HEK293T, RT-qPCR 3 days after transfection.

Data set [3] has as its target T3, KLF6 reprogrammed with array CDKN1C_200 (synthetic construct, UniProt Q99612 1-199).
T3 chain: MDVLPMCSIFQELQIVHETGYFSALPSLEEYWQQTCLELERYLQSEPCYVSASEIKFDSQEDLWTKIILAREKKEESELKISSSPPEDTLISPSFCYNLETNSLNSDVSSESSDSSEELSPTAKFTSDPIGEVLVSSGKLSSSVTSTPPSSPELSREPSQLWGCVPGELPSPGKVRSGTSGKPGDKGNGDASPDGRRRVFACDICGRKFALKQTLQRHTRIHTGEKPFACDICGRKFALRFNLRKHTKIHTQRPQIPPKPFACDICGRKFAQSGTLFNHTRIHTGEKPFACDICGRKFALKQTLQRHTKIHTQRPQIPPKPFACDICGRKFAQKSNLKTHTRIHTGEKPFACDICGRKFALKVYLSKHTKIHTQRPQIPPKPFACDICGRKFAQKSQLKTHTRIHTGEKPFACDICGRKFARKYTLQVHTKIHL
Description: Zn; HEK293T, RT-qPCR 3 days after transfection.

The target in data set [4] is ZIM3 reprogrammed with array UBE4A T1F8 (synthetic construct, UniProt Q96PE6 1-166). Nature of the data set: Zn; HEK293T, RT-qPCR 3 days after transfection.
Chain of ZIM3 reprogrammed with array UBE4A T1F8 (Q96PE6 other isoform, or with tags, fused parts or gaps): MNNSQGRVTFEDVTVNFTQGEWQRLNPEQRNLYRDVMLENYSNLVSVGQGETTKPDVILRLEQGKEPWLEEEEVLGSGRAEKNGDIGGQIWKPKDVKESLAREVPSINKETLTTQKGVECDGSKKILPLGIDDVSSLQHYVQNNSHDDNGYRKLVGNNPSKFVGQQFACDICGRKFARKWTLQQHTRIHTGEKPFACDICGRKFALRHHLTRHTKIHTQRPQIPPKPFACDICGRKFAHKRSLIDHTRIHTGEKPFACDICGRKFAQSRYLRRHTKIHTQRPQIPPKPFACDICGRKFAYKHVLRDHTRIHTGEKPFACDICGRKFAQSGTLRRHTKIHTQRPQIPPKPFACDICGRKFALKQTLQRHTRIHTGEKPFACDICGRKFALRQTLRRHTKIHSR
Data set [5] has as its target ZFN pair 12BC_designed + 12ED_designed (synthetic construct, UniProt P14870;P14870 384-579;384-579). Nature of the data set: Zn; U2OS eGFP disruption, 3 days after nucleofection. The following applies: tags: N-terminal 3xFLAG and SV40 NLS (kept in the assay, left out here); copies: 1;1.
Data set [6] has as its target T4, ZFN pair 12BC_selected + 12ED_selected (synthetic construct, UniProt P14870;P14870 384-579;384-579).
T4 chain 1: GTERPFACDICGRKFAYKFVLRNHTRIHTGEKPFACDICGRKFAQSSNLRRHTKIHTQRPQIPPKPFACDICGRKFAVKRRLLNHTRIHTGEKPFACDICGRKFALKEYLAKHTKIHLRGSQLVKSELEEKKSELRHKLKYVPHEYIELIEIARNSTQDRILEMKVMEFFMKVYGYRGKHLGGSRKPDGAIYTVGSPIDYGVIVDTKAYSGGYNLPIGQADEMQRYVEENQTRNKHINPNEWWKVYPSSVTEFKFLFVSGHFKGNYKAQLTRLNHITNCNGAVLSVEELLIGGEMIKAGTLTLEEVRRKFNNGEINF
T4 chain 2: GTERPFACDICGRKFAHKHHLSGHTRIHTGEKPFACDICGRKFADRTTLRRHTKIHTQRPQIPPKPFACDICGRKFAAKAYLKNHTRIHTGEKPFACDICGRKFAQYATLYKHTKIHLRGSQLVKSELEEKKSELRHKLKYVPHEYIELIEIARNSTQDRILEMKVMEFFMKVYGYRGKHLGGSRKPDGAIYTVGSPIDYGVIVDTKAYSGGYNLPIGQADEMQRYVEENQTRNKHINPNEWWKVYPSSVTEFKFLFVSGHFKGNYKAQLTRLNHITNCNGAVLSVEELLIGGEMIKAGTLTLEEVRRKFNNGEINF
Described as above. The following applies: tags: N-terminal 3xFLAG and SV40 NLS (kept in the assay, left out here); copies: 1;1.

Data set [7] addresses ZFN pair 12BC_substituted + 12ED_substituted (synthetic construct, UniProt P14870;P14870 384-579;384-579). The data set is described as above. The following applies: tags: N-terminal 3xFLAG and SV40 NLS (kept in the assay, left out here); copies: 1;1.
The target in data set [8] is ZFN pair 18BC_selected + 18ED_selected (synthetic construct, UniProt P14870;P14870 384-579;384-579). The data set is described as above. The note with it: tags: N-terminal 3xFLAG and SV40 NLS (kept in the assay, left out here); copies: 1;1.
For data set [9], the target named is ZFN pair 18BC_designed + 18ED_designed (synthetic construct, UniProt P14870;P14870 384-579;384-579). Described as above. The following applies: tags: N-terminal 3xFLAG and SV40 NLS (kept in the assay, left out here); copies: 1;1.
In data set [10] the target is ZIM3 reprogrammed with array DPH1T2R8 (synthetic construct, UniProt Q96PE6 1-166). Description: Zn; HEK293T, RT-qPCR 3 days after transfection.
Chain of ZIM3 reprogrammed with array DPH1T2R8 (Q96PE6 other isoform, or with tags, fused parts or gaps): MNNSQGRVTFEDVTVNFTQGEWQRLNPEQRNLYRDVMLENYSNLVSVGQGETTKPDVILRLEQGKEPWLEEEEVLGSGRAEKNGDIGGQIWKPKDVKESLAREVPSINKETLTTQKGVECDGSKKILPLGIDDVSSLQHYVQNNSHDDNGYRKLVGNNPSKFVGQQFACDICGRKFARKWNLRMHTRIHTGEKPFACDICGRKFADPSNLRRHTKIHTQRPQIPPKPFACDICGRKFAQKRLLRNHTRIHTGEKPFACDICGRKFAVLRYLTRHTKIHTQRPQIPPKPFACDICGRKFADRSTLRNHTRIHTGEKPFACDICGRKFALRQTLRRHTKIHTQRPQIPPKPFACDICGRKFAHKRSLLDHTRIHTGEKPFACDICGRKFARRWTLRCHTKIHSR
Data set [11] addresses ZFN pair 1BC_design + 1ED_design (synthetic construct, UniProt P14870;P14870 384-579;384-579). Nature of the data set: Zn; U2OS eGFP disruption, 3 days after nucleofection. The following applies: tags: N-terminal 3xFLAG and SV40 NLS (kept in the assay, left out here); copies: 1;1.
Data set [12] addresses ZFN pair 1BC_selected + 1ED_selected (synthetic construct, UniProt P14870;P14870 384-579;384-579). Described as above. The following applies: tags: N-terminal 3xFLAG and SV40 NLS (kept in the assay, left out here); copies: 1;1.
Data set [13] has as its target ZIM3 reprogrammed with array DPH1T2F8 (synthetic construct, UniProt Q96PE6 1-166). Nature of the data set: Zn; HEK293T, RT-qPCR 3 days after transfection.
Data set [14] concerns the target ZIM3 reprogrammed with array UBE4A T1R8 (synthetic construct, UniProt Q96PE6 1-166). Description: Zn; HEK293T, RT-qPCR 3 days after transfection.
Data set [15] deals with ZIM3 reprogrammed with array DPH1TSSR (synthetic construct, UniProt Q96PE6 1-166). Nature of the data set: Zn; HEK293T, RT-qPCR 3 days after transfection.
Chain of ZIM3 reprogrammed with array DPH1TSSR (Q96PE6 other isoform, or with tags, fused parts or gaps): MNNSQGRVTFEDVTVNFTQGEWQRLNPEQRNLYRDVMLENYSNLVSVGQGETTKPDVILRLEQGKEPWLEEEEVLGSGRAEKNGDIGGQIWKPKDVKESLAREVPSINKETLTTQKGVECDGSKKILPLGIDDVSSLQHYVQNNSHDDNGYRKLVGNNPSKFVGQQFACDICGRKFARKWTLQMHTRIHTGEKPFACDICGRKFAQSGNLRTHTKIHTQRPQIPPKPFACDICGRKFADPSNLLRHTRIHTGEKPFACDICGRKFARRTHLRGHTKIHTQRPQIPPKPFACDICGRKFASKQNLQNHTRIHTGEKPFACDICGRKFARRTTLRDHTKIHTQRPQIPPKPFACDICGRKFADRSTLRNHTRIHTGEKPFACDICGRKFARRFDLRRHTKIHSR
Data set [16] deals with ZFN pair 10BC_designed + 10ED_designed (synthetic construct, UniProt P14870;P14870 384-579;384-579). Description: Zn; U2OS eGFP disruption, 3 days after nucleofection. The following applies: tags: N-terminal 3xFLAG and SV40 NLS (kept in the assay, left out here); copies: 1;1.
Data set [17] concerns the target ZFN pair 10BC_substituted + 10ED_substituted (synthetic construct, UniProt P14870;P14870 384-579;384-579). The data set is described as above. The note with it: tags: N-terminal 3xFLAG and SV40 NLS (kept in the assay, left out here); copies: 1;1.
For data set [18], the target named is ZFN pair 10BC_selected + 10ED_selected (synthetic construct, UniProt P14870;P14870 384-579;384-579). The data set is described as above. The note with it: tags: N-terminal 3xFLAG and SV40 NLS (kept in the assay, left out here); copies: 1;1.
The next data set deals with array CDKN1C 125RC (synthetic construct). Nature of the data set: Zn; HEK293T, RNA-seq. The note with it: tags: N-terminal SV40 NLS, C-terminal GS linker + VP64 (left out).
Chain of array CDKN1C 125RC (synthetic construct) (chain, as listed by the source): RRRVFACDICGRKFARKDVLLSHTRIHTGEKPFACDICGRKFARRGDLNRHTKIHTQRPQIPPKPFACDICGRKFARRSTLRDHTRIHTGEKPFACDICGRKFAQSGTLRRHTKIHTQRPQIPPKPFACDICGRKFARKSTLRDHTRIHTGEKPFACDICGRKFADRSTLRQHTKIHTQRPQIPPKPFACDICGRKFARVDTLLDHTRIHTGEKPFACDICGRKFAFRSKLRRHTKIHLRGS
For data set [19], the target named is ZIM3 reprogrammed with array DPH1_15 F1-8 Q (synthetic construct, UniProt Q96PE6 1-166). Nature of the data set: Zn; HEK293T, RT-qPCR 3 days after transfection.
Chain of ZIM3 reprogrammed with array DPH1_15 F1-8 Q (Q96PE6 other isoform, or with tags, fused parts or gaps): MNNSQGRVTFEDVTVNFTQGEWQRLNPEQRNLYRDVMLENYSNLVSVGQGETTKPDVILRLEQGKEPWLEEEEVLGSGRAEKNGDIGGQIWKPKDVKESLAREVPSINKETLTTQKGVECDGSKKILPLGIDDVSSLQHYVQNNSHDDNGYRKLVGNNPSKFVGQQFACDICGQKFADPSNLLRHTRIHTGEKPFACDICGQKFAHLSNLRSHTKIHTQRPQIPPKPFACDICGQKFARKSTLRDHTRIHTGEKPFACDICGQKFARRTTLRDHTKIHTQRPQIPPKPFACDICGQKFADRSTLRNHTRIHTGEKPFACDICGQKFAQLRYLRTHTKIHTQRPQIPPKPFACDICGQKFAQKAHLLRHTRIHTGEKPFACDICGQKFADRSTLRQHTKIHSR
In data set [20] the target is ZIM3 reprogrammed with array DPH1_15 F3-8 (synthetic construct, UniProt Q96PE6 1-166). Description: Zn; HEK293T, RT-qPCR 3 days after transfection.
Chain of ZIM3 reprogrammed with array DPH1_15 F3-8 (Q96PE6 other isoform, or with tags, fused parts or gaps): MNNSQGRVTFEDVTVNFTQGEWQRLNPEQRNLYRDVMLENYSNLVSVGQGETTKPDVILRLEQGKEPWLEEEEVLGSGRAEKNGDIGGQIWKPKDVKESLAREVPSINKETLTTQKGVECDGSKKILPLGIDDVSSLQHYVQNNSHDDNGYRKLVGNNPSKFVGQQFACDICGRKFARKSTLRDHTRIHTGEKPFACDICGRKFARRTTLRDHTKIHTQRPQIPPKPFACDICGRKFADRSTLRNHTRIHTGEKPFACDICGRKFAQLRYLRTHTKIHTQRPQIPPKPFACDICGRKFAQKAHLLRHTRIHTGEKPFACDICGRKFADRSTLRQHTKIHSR
Data set [21] deals with ZIM3 reprogrammed with array DPH1_15 F1-6 (synthetic construct, UniProt Q96PE6 1-166). Description: Zn; HEK293T, RT-qPCR 3 days after transfection.
Chain of ZIM3 reprogrammed with array DPH1_15 F1-6 (Q96PE6 other isoform, or with tags, fused parts or gaps): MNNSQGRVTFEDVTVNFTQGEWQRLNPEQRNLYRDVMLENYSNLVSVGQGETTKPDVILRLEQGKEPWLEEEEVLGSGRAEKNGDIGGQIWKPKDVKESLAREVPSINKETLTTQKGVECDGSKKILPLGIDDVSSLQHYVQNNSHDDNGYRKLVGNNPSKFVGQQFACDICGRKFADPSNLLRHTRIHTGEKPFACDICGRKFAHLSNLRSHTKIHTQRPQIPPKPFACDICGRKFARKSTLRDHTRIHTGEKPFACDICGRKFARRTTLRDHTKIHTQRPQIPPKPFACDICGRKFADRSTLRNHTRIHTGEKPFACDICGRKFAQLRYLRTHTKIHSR
Data set [22] concerns the target ZIM3 reprogrammed with array DPH1_15 (synthetic construct, UniProt Q96PE6 1-166). Description: Zn; HEK293T, RT-qPCR 3 days after transfection.
Data set [23] concerns the target ZIM3 reprogrammed with array Rab1a T2R8 (synthetic construct, UniProt Q96PE6 1-166). Nature of the data set: Zn; HEK293T, RT-qPCR 3 days after transfection.

Chain of ZIM3 reprogrammed with array DPH1_15 (Q96PE6 other isoform, or with tags, fused parts or gaps): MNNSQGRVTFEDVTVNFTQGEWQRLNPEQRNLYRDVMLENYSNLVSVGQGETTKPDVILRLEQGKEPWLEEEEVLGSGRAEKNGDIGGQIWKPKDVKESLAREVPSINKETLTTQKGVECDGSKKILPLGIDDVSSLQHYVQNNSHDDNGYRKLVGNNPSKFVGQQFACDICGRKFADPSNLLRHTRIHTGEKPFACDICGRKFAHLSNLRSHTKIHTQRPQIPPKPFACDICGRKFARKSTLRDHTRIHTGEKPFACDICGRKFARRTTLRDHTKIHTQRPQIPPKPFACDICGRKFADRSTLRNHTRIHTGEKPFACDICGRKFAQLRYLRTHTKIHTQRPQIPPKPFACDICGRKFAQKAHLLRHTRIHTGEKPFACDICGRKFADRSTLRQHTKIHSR
Chain of ZIM3 reprogrammed with array Rab1a T2R8 (Q96PE6 other isoform, or with tags, fused parts or gaps): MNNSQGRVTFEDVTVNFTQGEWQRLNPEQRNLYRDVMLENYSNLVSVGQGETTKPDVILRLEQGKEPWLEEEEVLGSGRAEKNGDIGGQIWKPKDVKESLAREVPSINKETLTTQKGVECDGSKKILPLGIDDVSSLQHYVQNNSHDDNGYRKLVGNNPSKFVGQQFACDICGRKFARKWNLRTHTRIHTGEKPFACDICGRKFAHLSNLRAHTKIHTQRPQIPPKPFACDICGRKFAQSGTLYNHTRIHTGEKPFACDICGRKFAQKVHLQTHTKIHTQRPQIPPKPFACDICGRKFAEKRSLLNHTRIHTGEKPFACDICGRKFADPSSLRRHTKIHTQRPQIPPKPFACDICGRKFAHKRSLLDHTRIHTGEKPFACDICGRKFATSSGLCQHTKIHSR
Chain of ZIM3 reprogrammed with array UBE4A T1R8 (Q96PE6 other isoform, or with tags, fused parts or gaps): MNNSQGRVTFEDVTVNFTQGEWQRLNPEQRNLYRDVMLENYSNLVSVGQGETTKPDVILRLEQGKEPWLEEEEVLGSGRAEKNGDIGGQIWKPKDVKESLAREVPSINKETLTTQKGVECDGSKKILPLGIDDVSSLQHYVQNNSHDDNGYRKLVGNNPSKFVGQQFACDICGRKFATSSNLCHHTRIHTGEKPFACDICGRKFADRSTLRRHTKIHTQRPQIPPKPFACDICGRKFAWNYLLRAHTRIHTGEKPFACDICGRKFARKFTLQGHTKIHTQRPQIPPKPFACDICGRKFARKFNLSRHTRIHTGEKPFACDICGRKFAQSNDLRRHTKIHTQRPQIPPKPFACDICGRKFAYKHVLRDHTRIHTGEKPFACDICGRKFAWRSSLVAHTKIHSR
Chain of ZIM3 reprogrammed with array DPH1T2F8 (Q96PE6 other isoform, or with tags, fused parts or gaps): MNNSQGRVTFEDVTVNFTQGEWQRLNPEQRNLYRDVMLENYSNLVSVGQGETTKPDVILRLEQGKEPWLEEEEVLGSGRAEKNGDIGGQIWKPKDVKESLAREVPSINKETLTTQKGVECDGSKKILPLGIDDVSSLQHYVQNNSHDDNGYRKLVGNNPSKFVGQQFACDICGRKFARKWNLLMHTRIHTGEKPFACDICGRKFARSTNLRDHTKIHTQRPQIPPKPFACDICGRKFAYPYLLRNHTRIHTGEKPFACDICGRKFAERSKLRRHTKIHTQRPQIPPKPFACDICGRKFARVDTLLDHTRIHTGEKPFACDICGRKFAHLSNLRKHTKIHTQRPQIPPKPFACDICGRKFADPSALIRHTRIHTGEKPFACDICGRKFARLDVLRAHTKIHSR

B1: CDKN1C_200 (dsDNA)
DNA 1: TTGAAACTGAAAATACTACATTATGCTA
DNA 2: TAGCATAATGTAGTATTTTCAGTTTCAA
Regarding B1, the results for the binding signal in [1], in data set [2] and in [3] were ~11 relative expression (higher = more activity), ~3.2 relative expression (higher = more activity) and ~17 relative expression (higher = more activity), respectively.

B2: UBE4A T1F8 (dsDNA)
DNA 1: GCTGCTGGCACTTCAGGCTCTGGTAAGA
DNA 2: TCTTACCAGAGCCTGAAGTGCCAGCAGC
Consider B2, for which the binding signal in [4] is ~0.57 relative expression (lower = more activity, repressor).

B3: eGFP site 12 (8 fingers) (dsDNA)
DNA 1: GAAGTTCATCTGCACCACCGGCAAGCTGCCCGTG
DNA 2: CACGGGCAGCTTGCCGGTGGTGCAGATGAACTTC
With B3, the binding signal was ~24 % GFP-negative cells (higher = more activity) in [5], ~65 % GFP-negative cells (higher = more activity) in data set [6] and ~58 % GFP-negative cells (higher = more activity) in data set [7].

B4: eGFP site 18 (8 fingers) (dsDNA)
DNA 1: GCAGCACGACTTCTTCAAGTCCGCCATGCCCGAA
DNA 2: TTCGGGCATGGCGGACTTGAAGAAGTCGTGCTGC
On to B4, for which the values for the binding signal in data set [8] and in [9] were ~47 % GFP-negative cells (higher = more activity) and ~70 % GFP-negative cells (higher = more activity), respectively.

B5: DPH1T2R8 (dsDNA)
DNA 1: CTGCTCCGCTGCCCCGGATACGACCAGC
DNA 2: GCTGGTCGTATCCGGGGCAGCGGAGCAG
Take B5: in data set [10], the binding signal is ~0.77 relative expression (lower = more activity, repressor).

B6: eGFP site 1 (8 fingers) (dsDNA)
DNA 1: TGTTCACCGGGGTGGTGCCCATCCTGGTCGAGCT
DNA 2: AGCTCGACCAGGATGGGCACCACCCCGGTGAACA
As to B6, the binding signal in [11] is ~35 % GFP-negative cells (higher = more activity); in [12], ~53 % GFP-negative cells (higher = more activity).

B7: DPH1T2F8 (dsDNA)
DNA 1: CTGGTCGTATCCGGGGCAGCGGAGCAGG
DNA 2: CCTGCTCCGCTGCCCCGGATACGACCAG
Take B7: in data set [13], the binding signal is ~0.67 relative expression (lower = more activity, repressor).

B8: UBE4A T1R8 (dsDNA)
DNA 1: TGTCTTACCAGAGCCTGAAGTGCCAGCA
DNA 2: TGCTGGCACTTCAGGCTCTGGTAAGACA
As for B8, the binding signal in [14] is ~0.22 relative expression (lower = more activity, repressor).

B9: DPH1TSSR (dsDNA)
DNA 1: CCTGCCTGCGCATGTGGTACTAAAAAGA
DNA 2: TCTTTTTAGTACCACATGCGCAGGCAGG
With B9, the binding signal in data set [15] was ~0.58 relative expression (lower = more activity, repressor).

B10: eGFP site 10 (8 fingers) (dsDNA)
DNA 1: TACGGCAAGCTGACCCTGAAGTTCATCTGCACCA
DNA 2: TGGTGCAGATGAACTTCAGGGTCAGCTTGCCGTA
Turning to B10, the binding signal is ~28 % GFP-negative cells (higher = more activity) in [16], ~38 % GFP-negative cells (higher = more activity) in data set [17] and ~59 % GFP-negative cells (higher = more activity) in [18].

B11: CDK125RC (dsDNA)
DNA 1: GCGGCCCGGCCCCCGCGCACCGCCCATTGGC
DNA 2: GCCAATGGGCGGTGCGCGGGGGCCGGGCCGC
B11: the binding signal with array CDKN1C 125RC is ~2.2 log2 fold change (RNA-seq) (higher = more activity).

B12: DPH1_15 (dsDNA)
DNA 1: CCCGGATACGACCAGCGCCGCCATCACC
DNA 2: GGTGATGGCGGCGCTGGTCGTATCCGGG
For the molecule B12, the binding signal in [19] was ~0.67 relative expression (lower = more activity, repressor); in [20], ~0.12 relative expression (lower = more activity, repressor); in data set [21] it was ~0.62 relative expression (lower = more activity, repressor); in [22] it was ~0.13 relative expression (lower = more activity, repressor).

B13: Rab1a T2R8 (dsDNA)
DNA 1: CTACTCCGTCCCCTAGAACACAATCAGC
DNA 2: GCTGATTGTGTTCTAGGGGACGGAGTAG
On to B13, for which the binding signal in data set [23] was ~0.41 relative expression (lower = more activity, repressor).
